For twelve molecules, IC50 results are on record in patent US20090004214A1 (COMMISSARIAT A L ENERGIE ATOMIQUE, published 2009).

Sequences and labels used below:
B1: survivin peptide 1-15 (peptide)
peptide: MGAPTLPPAWQPFLK
notes: synthetic 15-mer
B2: survivin peptide 62-76 (peptide)
peptide: KELEGWEPDDDPIEE
notes: synthetic 15-mer
B3: survivin peptide 87-101 (peptide)
peptide: LSVKKQFEELTLGEF
notes: synthetic 15-mer
B4: survivin peptide 59-73 (peptide)
peptide: FCFKELEGWEPDDDP
notes: synthetic 15-mer
B5: survivin peptide 91-105 (peptide)
peptide: KQFEELTLGEFLKLD
notes: synthetic 15-mer
B6: survivin peptide 122-136 (peptide)
peptide: KEFEETAKKVRRAIE
notes: synthetic 15-mer
B7: survivin peptide 72-86 (peptide)
peptide: DPIEEHKKHSSGCAF
notes: synthetic 15-mer
B8: survivin peptide 4-18 (peptide)
peptide: PTLPPAWQPFLKDHR
notes: synthetic 15-mer
B9: survivin peptide 20-34 (peptide)
peptide: STFKNWPFLEGCACT
notes: synthetic 15-mer
B10: survivin peptide 36-50 (peptide)
peptide: ERMAEAGFIHCPTEN
notes: synthetic 15-mer
B11: survivin peptide 23-37 (peptide)
peptide: KNWPFLEGCACTPER
notes: synthetic 15-mer
B12: survivin peptide 102-116 (peptide)
peptide: LKLDRERAKNKIAKE
notes: synthetic 15-mer

For orientation: IC50 means the midpoint of a concentration-inhibition curve. A lower IC50 goes with higher potency.

For one test, the target named is T1, HLA-DR15 molecule (DRB1*1501) (human).
T1 construct: HLA class II heterodimer
The test is described as follows: competitive ELISA, tracer A3 152-166. In general terms: In an ELISA, binding on a coated surface is turned into a signal by an enzyme label.
B1: the IC50 worked out at 80 µM.
Same read-out and setting: in the case of B2 it was 65 µM; in that of B3, 4.8 µM; in that of B4, 8 µM.
Same read-out and setting: as for B5, the figure is 3.16 µM.
The molecule B6 showed an IC50 of 1.2 µM.

The next test addresses T2, HLA-DR3 molecule (DRB1*0301) (human).
T2 construct: HLA class II heterodimer
The test is described as follows: competitive ELISA, tracer MT 2-16.
As to B6, the IC50 came to 5.81 µM.

The target in a further test is T3, HLA-DRB3 molecule (DRB3*0101) (human).
T3 construct: HLA class II heterodimer
In words: competitive ELISA, tracer LOL 191-210.
Regarding B2, the IC50 came to 29 µM.
B3 returned an IC50 of 6.8 µM. This IC50 is about 4.3-fold lower than that of the molecule before.
Same read-out and setting: in the case of B5 it was 30 µM.

The target of the next test is T4, HLA-DR13 molecule (DRB1*1301) (human).
T4 construct: HLA class II heterodimer
The test is described as follows: competitive ELISA, tracer B1 21-36.
B7 showed an IC50 of 11 µM.
Still for that read-out and setting: in the case of B8 it was 40 µM; in that of B6, 0.995 µM.

For a further test, the target named is T5, HLA-DR4 molecule (DRB1*0401) (human).
T5 construct: HLA class II heterodimer
In words: competitive ELISA, tracer HA 306-318.
Molecule B9 had an IC50 of 5.2 µM.
Regarding B10, the IC50 was 17 µM. This IC50 is about 3.3-fold higher than that of the molecule before.
As to B3, the IC50 is 6.45 µM.
The same measure, in the same setting: in the case of B4 it was 58 µM.
On the same count and under the same terms, as for B11, the figure is 5.2 µM.
For B5, the IC50 was 1.59 µM.

A further test has as its target T6, HLA-DRB5 molecule (DRB5*0101) (human).
T6 construct: HLA class II heterodimer
The test is described as follows: competitive ELISA, tracer HA 306-318.
For the molecule B12, the half-maximal inhibitory concentration (IC50) is 0.018 µM.
On the same count and under the same terms, as for B10, the figure is 3.79 µM; as for B1, 8 µM; as for B7, 6.2 µM.
As for B3, the half-maximal inhibitory concentration (IC50) turned out to be 6 µM.
The same measure, in the same setting: in the case of B8 it was 5.48 µM; in that of B4, 45 µM.
The same measure, in the same setting: in the case of B11 it was 3.42 µM; in that of B5, 0.145 µM.
On the same count and under the same terms, as for B6, the figure is 0.447 µM.

A further test deals with T7, HLA-DR1 molecule (DRB1*0101) (human).
T7 construct: HLA class II heterodimer
In words: competitive ELISA, tracer HA 306-318.
With B12, the IC50 amounted to 7.75 µM.
Same read-out and setting: in the case of B10 it was 2.55 µM.
In the case of B1, the IC50 was determined as 10.8 µM.
Same read-out and setting: as for B7, the figure is 95 µM; as for B3, 0.15 µM; as for B8, 45 µM.
On the same count and under the same terms, as for B4, the figure is 3.76 µM; as for B11, 0.071 µM.
The same measure, in the same setting: as for B5, the figure is 0.012 µM; as for B6, 5.56 µM.

For a further test, the target named is T8, HLA-DR11 molecule (DRB1*1101) (human).
T8 construct: HLA class II heterodimer
The test is described as follows: competitive ELISA, tracer HA 306-318.
The molecule B12 registered an IC50 of 8.94 µM.
B10 returned an IC50 of 5.59 µM.
B1 had an IC50 of 0.063 µM. Against the preceding molecule, the IC50 is about 89-fold lower.
B3 showed a half-inhibitory concentration (IC50) of 2.06 µM.
B4: the IC50 was determined as 1.84 µM.
The same measure, in the same setting: as for B11, the figure is 37 µM; as for B5, 2.35 µM; as for B6, 0.31 µM.

For another test, the target named is T9, HLA-DP402 molecule (DPB1*0402) (human, UniProt P20036 29-222, limits assumed).
T9 construct: HLA class II heterodimer; also called DP*0402
In words: competitive ELISA, tracer Oxy 271-287.
Molecule B10 gave a half-maximal inhibitory concentration (IC50) of 3.17 µM.
On the same count and under the same terms, as for B1, the figure is 6.93 µM; as for B3, 6.39 µM; as for B8, 3.59 µM.
The same measure, in the same setting: as for B11, the figure is 3.7 µM.
On to B5, for which the IC50 was determined as 0.012 µM. Against the preceding molecule, the IC50 is about 310-fold lower.

In the next test the target is T10, HLA-DP401 molecule (DPB1*0401) (human, UniProt P20036 29-222, limits assumed).
T10 construct: HLA class II heterodimer; also called DP*0401
The test is described as follows: competitive ELISA, tracer Oxy 271-287.
The molecule B10 came in with an IC50 of 3.62 µM.
Still for that read-out and setting: as for B1, the figure is 9.2 µM; as for B3, 3.67 µM; as for B8, 9 µM.
Same read-out and setting: as for B5, the figure is 0.011 µM.

In the next test the target is T11, HLA-DR7 molecule (DRB1*0701) (human).
T11 construct: HLA class II heterodimer
In words: competitive ELISA, tracer YKL.
Take B12: the IC50 came out at 50 µM. That is a double-digit micromolar value.
Still for that read-out and setting: in the case of B9 it was 20 µM.
The same measure, in the same setting: in the case of B10 it was 17 µM.
On the same count and under the same terms, in the case of B3 it was 0.705 µM; in that of B4, 9 µM.
As to B11, the IC50 was 60 µM.
The same measure, in the same setting: in the case of B5 it was 0.056 µM; in that of B6, 20 µM.

Another test addresses T12, HLA-DRB4 molecule (DRB4*0101) (human).
T12 construct: HLA class II heterodimer
In words: competitive ELISA, tracer E2/E168.
In turn, B9 displayed an IC50 of 5.5 µM.
For B10, the IC50 was 49 µM.
On the same count and under the same terms, in the case of B3 it was 9.8 µM.
